On to “B. amyloliquefaciens subtilisin (protease) (enzyme)”, for which the Hydrolysis Rate (A405 /min) with KAAFpNA came out at 0.002 A405/min; with VLKpNA, 0.0017 A405/min; with sAAApNA, 0.011 A405/min; with sAAPFpNA, 0.83 A405/min; in the test with sAAPLpNA, 0.45 A405/min; with sAAPMpNA, 0.25 A405/min.

With B. lentus protease (Savinase) (enzyme), the Hydrolysis Rate (A405 /min) in the test with KAAFpNA stood at 0.08 A405/min; with VLKpNA it was 0.0003 A405/min; in the test with sAAApNA, 0.176 A405/min; with sAAPFpNA it was 1.15 A405/min; with sAAPLpNA it was 0.23 A405/min; with sAAPMpNA it was 0.75 A405/min.

For the substance “LG-12 protease (Bacillus sp. strain LG-12 subtilisin, product of the sprC gene) (enzyme)”, the Hydrolysis Rate (A405 /min) in the test with KAAFpNA was found to be 0.006 A405/min; with VLKpNA, 0.0008 A405/min; with sAAApNA, 0.014 A405/min; in the test with sAAPFpNA, 0.87 A405/min; with sAAPLpNA, 0.58 A405/min; with sAAPMpNA, 0.19 A405/min.

For the origin of these results see patent US5677163.
